In article PMC4165587, “Comparison of the Structure and Function of Phospholamban and the Arginine-14 Deficient Mutant Associated with Dilated Cardiomyopathy” (PLoS ONE, 2014):

Biological target: the molecule itself
Assay: SDS-PAGE; recombinant PLB in isolation, solubilised in LDS sample buffer; 4-12% Bolt Bis-Tris Plus gel, MES SDS running buffer; Coomassie stain

Protein	stoichiometry N
phospholamban with a deletion of arginine at position 14 (PLBR14Δ), full length, recombinant (natural protein, human, UniProt P26678 1-52, looked up, phospholamban, human, full length, non-acetylated, with the deletion of Arg14 that is associated with human dilated cardiomyopathy; Made from the human PLBWT DNA by site-directed ligase-independent mutagenesis; A synthetic full-length PLBR14Δ was also bought (Activotec), but the experiments written here name the recombinant protein; also called Rec R14Δ; PLBR14D; source: E. coli C41(DE3), MBP …) MEKVQYLTRSAIRASTIEMPQQARQKLQNLFINFCLILICLLLICIIVMLL	5
wild type phospholamban (PLBWT), full length, recombinant (natural protein, human, UniProt P26678 1-52, looked up, phospholamban, human, 52 amino acids, full length, non-acetylated; Untagged after TEV cleavage; also called Rec WT; source: E. coli C41(DE3), MBP fusion (pMAL c2X), purified on amylose, cleaved with TEV protease, chloroform/methanol extraction; not shown: MBP, N-terminal, cleaved) MEKVQYLTRSAIRRASTIEMPQQARQKLQNLFINFCLILICLLLICIIVMLL	5
